The data set concerns metastatic castration-resistant prostate cancer. As to the kind of experiment: 212Pb SPECT/CT imaging (biodistribution) in a patient with metastatic castration-resistant prostate cancer. It is filed as in vivo, human. The following applies: 60 MBq. Here is the method:
To gauge the biodistribution and inform patient tolerability of a ^212Pb radiopharmaceutical comprising an acetamide-based chelator, 60 MBq of ^212Pb-ADVC001 was administered to a person with metastatic castration-resistant prostate cancer. SPECT/CT imaging was performed at 1.5, 5, 20, and 28 h following infusion. […] FIG. 3B depicts sagittal and coronal images at 1.5 h after injection (p.i.). Further details are published in Griffths et al., Journal of Nuclear Medicine, 2024, 65 (7), the entire contents of which are hereby incorporated herein by reference.

For the substance “HO-Glu-CO-Lys[SubA-D-Lys-D-Phe-D-Tyr(3I)-(Pent-^212Pb-DO3AM)]-OH [^212Pb-ADVC001]”, the kidney clearance result (patient with mCRPC, SPECT/CT (FIG. 3A)) was “rapid kidney clearance”. Moreover, the “tumour uptake on 212Pb SPECT/CT images” value (person with mCRPC, SPECT/CT at 1.5, 5, 20 and 28 h following infusion) is recorded as “rapid tumour uptake”.

The values above are taken from patent US20260284241A1, “DOSAGE REGIMEN FOR SHORT-LIVED RADIOISOTOPE” (AdvanCell Pty Limited, priority 2023, published 2026).
